± gives the standard deviation of the averaged measurements.

For 116 sequences, protein stability index results are on record in the supplement of paper PMC10724198.
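Also: PSI is a weighted mean of sequencing reads over stability bins, variants kept only with over 10 reads, mCherry proximal and sfGFP distal, peptide attached via GGGS linker.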

This series deals with Saccharomyces cerevisiae. As to the kind of experiment: protein stability index of tFT-peptide fusion (C-terminal peptide) (PSI (0-1 scale)); higher = more stable (slower turnover). The following applies: genetic background: wild type; temperature: 30 C.
As for TARRGAARSSQL, the protein stability index was determined as 0.695 ± 0.017.

Sequence TASPPLHSFLGS registered a protein stability index of 0.679 ± 0.034.

The sequence TAYNVTLVIARG yielded a protein stability index of 0.468 ± 0.094.

TCAGTGSTHLSR: the protein stability index turned out to be 0.688 ± 0.035.

TCPLSFFLSFLF came in with a protein stability index of 0.565 ± 0.037.

As for TCTDTCIRGSRL, the protein stability index is 0.77 ± 0.033.

The sequence TCTGAKHRCHVL returned a protein stability index of 0.677 ± 0.011.

With TDWCSYWSGWVV, the protein stability index is 0.722 ± 0.019.

In turn, TEFFVFNRTQSL showed a protein stability index of 0.671 ± 0.088.

TEGGSSKPSSNP returned a protein stability index of 0.704 ± 0.089.

Consider TEKTHRTTIVNN, for which the protein stability index is 0.7254 ± 0.0061.

Sequence TESGWMGRGFMR gave a protein stability index of 0.656 ± 0.088.

TEVSAPAPPCLW gave a protein stability index of 0.6371 ± 0.0058.

TEYCSRHDTATK yielded a protein stability index of 0.728 ± 0.0096.

Sequence TFRHLRPPLRSR yielded a protein stability index of 0.649 ± 0.037.

In the case of TFSGWYIQGQIV, the protein stability index amounted to 0.702 ± 0.16.

In turn, TFSWISGKPRHT gave a protein stability index of 0.679 ± 0.041.

TGEVPPPRCEGE: the protein stability index was determined as 0.638 ± 0.014.

TGGRRKNCIIKK yielded a protein stability index of 0.688 ± 0.062.

For the sequence TGKIRWIPAIRS, the protein stability index was 0.64 ± 0.039.

With TGLYWGQIPYSQ, the protein stability index is 0.687 ± 0.062.

Sequence TGPSLDRALLDL showed a protein stability index of 0.6412 ± 0.002.

Sequence TGRGSMSNVRVK showed a protein stability index of 0.706 ± 0.06.

As to TGTATGTEGANY, the protein stability index came to 0.698 ± 0.022.

Consider TGTEKFTMQFKF, for which the protein stability index was 0.673 ± 0.042.

For the sequence TGTVYGGTRRGQ, the protein stability index is 0.698 ± 0.075.

The sequence TGVCKGMRWRGV registered a protein stability index of 0.683 ± 0.045.

As for THCWQVLPCGLI, the protein stability index was 0.723 ± 0.0089.

As for THRAGLGANKGL, the protein stability index stood at 0.696 ± 0.029.

Consider THSLRIRESNNT, for which the protein stability index was found to be 0.674 ± 0.014.

The sequence TKCSPLASRFSC yielded a protein stability index of 0.707 ± 0.016.

TKKKKKKNKKQE showed a protein stability index of 0.683 ± 0.012.

Regarding TKNTQNNGKDKK, the protein stability index amounted to 0.734 ± 0.059.

Consider TKQLKGEQERDG, for which the protein stability index was found to be 0.648 ± 0.031.

Consider TKRRRKRRGAKK, for which the protein stability index is 0.672 ± 0.014.

Turning to TKVCWNVDYNVL, the protein stability index came out at 0.697 ± 0.012.

As to TKWAISRLHNSA, the protein stability index stood at 0.64 ± 0.012.

In turn, TKYIGDGCVCSC displayed a protein stability index of 0.645 ± 0.018.

TLCTKCNVFSCC: the protein stability index was found to be 0.682 ± 0.062.

The sequence TLFVAWTDCMSY came in with a protein stability index of 0.6591 ± 0.0061.

The sequence TLIEWSAKGCRR displayed a protein stability index of 0.693 ± 0.047.

With TLKGERHKKNKR, the protein stability index was determined as 0.623 ± 0.035.

For TLRKTTRHRRNA, the protein stability index is 0.737 ± 0.069.

Regarding TLSLPPLHPPPH, the protein stability index is 0.699 ± 0.0063.

For the sequence TLSPPPALASPL, the protein stability index was determined as 0.71 ± 0.037.

As for TLTTVLSPHSHR, the protein stability index worked out at 0.716 ± 0.0073.

On to TLVALGFIYASG, for which the protein stability index turned out to be 0.572 ± 0.0048.

In the case of TLYKSEQIAFFL, the protein stability index came out at 0.644 ± 0.047.

TMLIGTAQAVNN: the protein stability index came to 0.604 ± 0.026.

TNALVGEWVGLG had a protein stability index of 0.795 ± 0.11.

The sequence TNANKKNGRGNT gave a protein stability index of 0.683 ± 0.041.

TNKRKNIRTKQR yielded a protein stability index of 0.638 ± 0.037.

For TPASAGLACILL, the protein stability index was 0.672 ± 0.013.

As for TPGGRTLATALR, the protein stability index was found to be 0.676 ± 0.018.

TPHAPTATPRDN returned a protein stability index of 0.727 ± 0.076.

TPLAPASPPAAR returned a protein stability index of 0.717 ± 0.056.

For the sequence TPLPPLPPHPPS, the protein stability index was 0.727 ± 0.0087.

In turn, TPNLQPLPRNLD returned a protein stability index of 0.765 ± 0.037.

Turning to TPPCACTPPRAP, the protein stability index was determined as 0.686 ± 0.081.

Sequence TPQSLRDAHGSC had a protein stability index of 0.662 ± 0.056.

TPRASLSATSRS: the protein stability index came to 0.719 ± 0.016.

Regarding TPRTNATAMCTP, the protein stability index is 0.72 ± 0.038.

TPSYSPPSRHDP: the protein stability index amounted to 0.634 ± 0.093.

For TPTRRIIPHTHP, the protein stability index came to 0.685 ± 0.086.

The sequence TQARDTIPGAKV returned a protein stability index of 0.678 ± 0.02.

Take TQEKKGKIRGGI: the protein stability index turned out to be 0.685 ± 0.0085.

As to TQSPANIIQRKT, the protein stability index was determined as 0.672 ± 0.024.

In turn, TQTLPPPLPPLL registered a protein stability index of 0.675 ± 0.02.

For TQWRSRRHLKPQ, the protein stability index is 0.72 ± 0.032.

In turn, TQYINTAHKELK yielded a protein stability index of 0.6677 ± 0.00083.

Regarding TQYTDNQTPITK, the protein stability index turned out to be 0.6673 ± 0.0027.

Turning to TRAKVQSRGSLS, the protein stability index was found to be 0.708 ± 0.039.

In the case of TRCKRNETCTSG, the protein stability index was 0.669 ± 0.046.

Take TRECGRLRQAET: the protein stability index was found to be 0.723 ± 0.067.

The sequence TRHPGGERIPTY returned a protein stability index of 0.743 ± 0.12.

Regarding TRIRLQKNVITL, the protein stability index was 0.683 ± 0.014.

With TRLGWSWGFAHR, the protein stability index amounted to 0.719 ± 0.11.

Sequence TRREQYSSSNLV registered a protein stability index of 0.674 ± 0.04.

The sequence TRRKKKKNTGTK displayed a protein stability index of 0.71 ± 0.022.

As for TRRLEFPEPPMS, the protein stability index turned out to be 0.708 ± 0.061.

In turn, TRSGGNGYERVC gave a protein stability index of 0.667 ± 0.03.

In turn, TSCFIWGCACCR returned a protein stability index of 0.656 ± 0.058.

Turning to TSEIGKEINYRK, the protein stability index came out at 0.66 ± 0.017.

With TSFLRSPPPPRL, the protein stability index came out at 0.763 ± 0.012.

Consider TSGRTLVNDKCT, for which the protein stability index was determined as 0.716 ± 0.012.

The sequence TSIFRIICLTDR displayed a protein stability index of 0.642 ± 0.022.

Regarding TSKPGLQIPRRE, the protein stability index is 0.747 ± 0.047.

Consider TSKTLHKTNNIK, for which the protein stability index was determined as 0.698 ± 0.028.

TSPLSPAPPPPR returned a protein stability index of 0.641 ± 0.083.

Sequence TSPPPGTHTLQP gave a protein stability index of 0.626 ± 0.023.

In the case of TSQASIRDLTNK, the protein stability index came out at 0.579 ± 0.016.

As for TTPHTSFTILHP, the protein stability index was determined as 0.696 ± 0.087.

The sequence TTPRAILPLSSI gave a protein stability index of 0.67 ± 0.043.

Turning to TTSRTRVAHPPI, the protein stability index was 0.622 ± 0.071.

In turn, TVGSVAREGPFW gave a protein stability index of 0.696 ± 0.025.

TVLTDKKGRVRS gave a protein stability index of 0.71 ± 0.0093.

In turn, TVMSDCQTDQAS came in with a protein stability index of 0.657 ± 0.065.

The sequence TVNHKHALQFAT registered a protein stability index of 0.681 ± 0.091.

On to TVRLAPCPLSDT, for which the protein stability index worked out at 0.744 ± 0.075.

In the case of TVVSFMFCPSLT, the protein stability index was 0.667 ± 0.061.

For the sequence TWGLGVFSIMDC, the protein stability index is 0.633 ± 0.052.

TWPGRAGGRGAT displayed a protein stability index of 0.721 ± 0.1.

The sequence TWRWVGGRWSGL had a protein stability index of 0.5601 ± 0.0026.

On to TYATPSLVFPLL, for which the protein stability index is 0.695 ± 0.011.

TYPSWIYELNKT returned a protein stability index of 0.753 ± 0.077.

In the case of TYQVVPRDAPYV, the protein stability index worked out at 0.672 ± 0.025.

TYVSKCRLYEPA returned a protein stability index of 0.644 ± 0.011.

In turn, VAAFGGGRTNGV yielded a protein stability index of 0.724 ± 0.024.

Sequence VAAQRYAQRLFT had a protein stability index of 0.652 ± 0.021.

In the case of VACYVDWSQNHR, the protein stability index was 0.728 ± 0.06.

As for VAGFVPSWVALW, the protein stability index worked out at 0.643 ± 0.1.

For the sequence VALEFLGWVGLS, the protein stability index was 0.684 ± 0.094.

As to VALHRIPVTVSR, the protein stability index stood at 0.578 ± 0.026.

The sequence VALLKCTGTAQI yielded a protein stability index of 0.61 ± 0.033.

For the sequence VAPDSARVFHFV, the protein stability index was 0.64 ± 0.025.

In the case of VARCWGGLGLAR, the protein stability index turned out to be 0.692 ± 0.047.
